Test results as given in paper PMC4447067.

How the values were obtained:
Conditions in all cases: GMSA: K-glu100 buffer (40 mM HEPES pH 8.0, 10 mM MgCl2, 100 mM K glutamate, 4 mM DTT, 500 ug/ml BSA), 15 min at 37 C, 1 nM DNA, 18-150 nM RNA polymerase …
[1] = target: T1, Esigma70 RNA polymerase holoenzyme (reconstituted) (UniProt P00579+P0A7Z4+P0A8V2+P0A8T7+P0A800); assay: KMnO4 footprinting
[2] = target: T2, EsigmaS RNA polymerase holoenzyme (reconstituted) (UniProt P13445+P0A7Z4+P0A8V2+P0A8T7+P0A800); assay: KMnO4 footprinting
[3] = target: T2, EsigmaS RNA polymerase holoenzyme (reconstituted); assay: EMSA
[4] = target: T1, Esigma70 RNA polymerase holoenzyme (reconstituted); assay: EMSA

Row | Sequence | binding [1] | binding [2] | binding [3] | binding [4]
1 | GATGGCGATAACTTCACTGGTGCGAAATGCGACCGAAGCAACCGCGCCATTACCGTCAATAGTAATCATATGACACCCTTACATTGCGCAAATGAGGGGCGCACGAAATTGCTGCGCGCCCAGTAGTAATCTTTCAATTTTAGCAAATGGCTTTCTTCTGCATTTTCGCTTTTGTGTCCCCCACATCAGCGTAATGAATGTTTTGATCAAACAGAGGGCAAAAAAATAGCCATAAAAAAGTAAAAATGCG (double strand) [ydbK promoter fragment] | binds | binds | binds | 
2 | TATTCAGTCGCTGAAAAGCCGCTACGGCGAAAGTGAAGAGATCCTGTCGCTGCTTAATCTTTATCATAATCTGCTGCGGGAATGGTCGGAGATCTGATGCTTGAACTGCCCGAGTTCGTCCCTGGATTAGCTACACTTAACTGTACAAGTATTGATATGGGGAGGTCGATATGGCATCCGGTTGGGCTAACGATGACGCCGTCAACGAACAGATCAACAGTACAATT (double strand) [ybiI promoter fragment] | binds more weakly | binds | binds | binds more weakly
